Data published in patent US20220056141A1 (DEUTSCHES KREBSFORSCHUNGSZENTRUM STIFTUNG DES OFFENTLICHEN …, published 2022).

T1: FLT3 on Nalm16 cells (human, UniProt P36888 27-993)
T1 construct: whole, on cells; Endogenous FLT3 of the NALM16 leukemia cell line; also called NALM16 (FLT3+); NALM-16 cells expressing FLT3
T1 sequence (looked up): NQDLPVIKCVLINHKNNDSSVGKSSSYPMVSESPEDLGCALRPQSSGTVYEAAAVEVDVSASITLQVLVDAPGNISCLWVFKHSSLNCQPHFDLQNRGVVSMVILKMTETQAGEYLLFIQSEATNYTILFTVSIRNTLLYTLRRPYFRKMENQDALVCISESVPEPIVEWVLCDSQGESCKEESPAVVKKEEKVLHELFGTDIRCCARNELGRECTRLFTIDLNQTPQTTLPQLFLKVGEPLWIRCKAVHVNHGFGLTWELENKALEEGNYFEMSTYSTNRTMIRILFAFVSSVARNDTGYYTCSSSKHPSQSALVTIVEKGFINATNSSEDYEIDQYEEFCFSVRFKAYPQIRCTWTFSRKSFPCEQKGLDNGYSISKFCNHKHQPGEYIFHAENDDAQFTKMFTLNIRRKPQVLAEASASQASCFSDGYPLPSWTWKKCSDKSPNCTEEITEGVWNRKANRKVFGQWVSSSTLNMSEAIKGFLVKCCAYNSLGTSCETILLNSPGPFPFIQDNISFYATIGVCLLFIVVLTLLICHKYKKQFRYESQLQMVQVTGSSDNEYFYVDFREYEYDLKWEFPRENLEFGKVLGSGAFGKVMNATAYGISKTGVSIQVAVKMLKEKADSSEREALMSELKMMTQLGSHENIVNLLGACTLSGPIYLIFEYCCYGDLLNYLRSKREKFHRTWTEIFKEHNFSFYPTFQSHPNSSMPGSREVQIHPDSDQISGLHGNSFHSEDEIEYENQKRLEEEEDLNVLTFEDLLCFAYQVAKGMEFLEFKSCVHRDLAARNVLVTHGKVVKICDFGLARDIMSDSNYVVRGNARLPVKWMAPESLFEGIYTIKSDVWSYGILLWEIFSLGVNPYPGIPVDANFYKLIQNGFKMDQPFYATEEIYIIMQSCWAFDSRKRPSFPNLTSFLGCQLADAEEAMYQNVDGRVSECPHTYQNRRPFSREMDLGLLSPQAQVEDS

T2: His tagged, recombinant FLT3 protein (Sino Biologicals) (human, UniProt P36888 27-541, limits assumed)
T2 construct: Bought protein; also called soluble recombinant FLT3 protein; not shown: His tag
T2 sequence (looked up): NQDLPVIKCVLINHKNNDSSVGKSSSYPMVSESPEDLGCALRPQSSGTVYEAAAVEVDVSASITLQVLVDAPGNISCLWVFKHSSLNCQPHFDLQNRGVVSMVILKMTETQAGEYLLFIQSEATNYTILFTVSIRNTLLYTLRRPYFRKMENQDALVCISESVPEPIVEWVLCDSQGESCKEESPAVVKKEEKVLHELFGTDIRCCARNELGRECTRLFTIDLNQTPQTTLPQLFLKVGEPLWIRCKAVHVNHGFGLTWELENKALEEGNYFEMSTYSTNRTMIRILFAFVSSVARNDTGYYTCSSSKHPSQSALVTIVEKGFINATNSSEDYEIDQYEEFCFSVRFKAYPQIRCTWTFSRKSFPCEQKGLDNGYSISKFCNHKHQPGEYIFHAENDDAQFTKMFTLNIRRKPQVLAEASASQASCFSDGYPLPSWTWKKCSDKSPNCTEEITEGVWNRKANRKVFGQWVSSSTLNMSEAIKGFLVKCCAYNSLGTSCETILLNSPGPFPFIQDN


What was measured:
[1] = molecular target: T1, FLT3 on Nalm16 cells; test: flow cytometry (row 'EC50, FACS binding' under the bars; binding to NALM16 cells of FIG. 4)
Method: (§1) In addition, antibody binding affinity was also tested using binding of the antibody to its target(s) as expressed on cells. Analyzed is the binding of CC-2 variants to Nalm16 cells expressing FLT3 (FIG. 4) or Jurkat cells expressing CD3 (FIG. 6). Variants V1 to V9 (with V6 being V6-V6) were produced after transient transfection of CHO cells using the insert sequences listed above. The antibodies were purified by protein A affinity- and size exclusion-chromatography. […] To measure antibody binding to FLT3 and CD3 NALM16 (FLT3+) and Jurkat (CD3+) cells were incubated with the respective variants for 30 min, washed, stained with a goat anti human Fcγ-specific and PE-conjugated secondary antibody (Jackson Immuno Research), washed again and analyzed by flow cytometry (FACSCalibur, BD Biosciences).

[2] = molecular target: T2, His tagged, recombinant FLT3 protein …; test: SPR (Biacore X); antibody captured on protein A chip, His-tagged recombinant FLT3 in solution
Method: FIG. 3 depicts binding of different CC-2 variants to soluble recombinant FLT3 protein. Respective antibody variants were immobilized to a Biacore chip coated with protein A and binding of His tagged, recombinant FLT3 protein (Sino Biologicals) was determined using a Biacore X instrument (GE Healthcare). Shown are the results of various mutated variants of the FLT3 antigen binding domain (V1 to V5).
In FIG. 3 the binding of different FLT3 binding domain variants V1 to V5 as indicated above was tested for their dissociation constant using a soluble recombinant FLT3 protein. Respective antibody variants were immobilized to a Biacore chip coated with protein A and binding of His tagged, recombinant FLT3 protein (Sino Biologicals) was determined using a Biacore X instrument (GE Healthcare).

[3] = molecular target: T3, CD3 on Jurkat cells (human, UniProt P07766 23-207); test: flow cytometry (value under the bar; by the legend the EC50 of the binding to Jurkat cells of FIG. 6)
T3 construct: whole, on cells; also called Jurkat (CD3+); human cluster of differentiation 3 (CD3) antigen
Method: as §1

T3 sequence (P07766 23-207): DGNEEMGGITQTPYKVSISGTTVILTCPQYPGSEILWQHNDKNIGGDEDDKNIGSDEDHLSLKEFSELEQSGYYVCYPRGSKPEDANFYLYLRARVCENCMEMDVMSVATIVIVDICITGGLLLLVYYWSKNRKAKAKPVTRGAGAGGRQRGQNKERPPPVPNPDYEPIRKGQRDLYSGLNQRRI

Binder | EC50 [1] | Kd [2] | koff [2] | kon [2] | EC50 [3]
bispecific FLT3xCD3 IgGsc antibody V2-V6 (CC-2 variant 2) (bispecific antibody, Fc-attenuated IgGsc format; also called Version 2; CC-2 V2) heavy: QVQLVQSGAEVKKPGGSLRLSCAASGYTFTSYWMHWVRQAPGQGLEWIGEIDPSDSYTDYAQKFKDRVTISRDTSKNTLYLQLSSLRAEDTAVYYCARAITTTPFDFWGQGTLVTVSSASTKGPSVFPLAPSSKSTSGGTAALGCLVKDYFPEPVTVSWNSGALTSGVHTFPAVLQSSGLYSLSSVVTVPSSSLGTQTYICNVNHKPSNTKVDKKVEPKSCDKTHTCPPCPAPPVAGPSVFLFPPKPKDTLMISRTPEVTCVVVGVSHEDPEVKFNWYVDGVEVHNAKTKPREEQYNSTYRVVSVLTVLHQDWLNGKEYKCKVSNKQLPSPIEKTISKAKGQPREPQVYTLPPSRDELTKNQVSLTCLVKGFYPSDIAVEWESNGQPENNYKTTPPVLDSDGSFFLYSKLTVDKSRWQQGNVFSCSVMHEALHNHYTQKSLSLSPGKSGDIQMTQSPSSLSASVGDRVTITCRASQDIRNYLNWYQQKPGKAPKLLIYYTSRLESGVPSRFSGSGSGTDYTLTISSLQPEDFATYYCQQGNTLPWTFGQGTKVEIKGGGGSGGGGSGGGGSEVQLVESGGGLVQPGGSLRLSCAASGYSFTGYTMNWVRQAPGKGLEWVALINPYKGVSTYNQKFKDRFTISVDKSKNTAYLQMNSLRAEDTAVYYCARSGYYGDSDWYFDVWGQGTLVTVSS light: not shown | 10 nM | 88000 nM | 0.0318 s⁻¹ | 540 M⁻¹ s⁻¹ | 
bispecific FLT3xCD3 IgGsc antibody V1-V6 (CC-2 variant 1) (bispecific antibody, Fc-attenuated IgGsc format: VH-CH1-CH2mod-CH3-scFv(UCHT1 V6) heavy chain and VL-CL light chain; also called Version 1; CC-2 V1) heavy: QVQLVQSGAEVKKPGGSLRLSCAASGYTFTSYWMHWVRQAPGQGLEWIGEIDPSDSYTDYAQKFKDRVTISRDTSKNTLYLQLSSLRAEDTAVYYCARAITTTPFDFWGQGTLVTVSSASTKGPSVFPLAPSSKSTSGGTAALGCLVKDYFPEPVTVSWNSGALTSGVHTFPAVLQSSGLYSLSSVVTVPSSSLGTQTYICNVNHKPSNTKVDKKVEPKSCDKTHTCPPCPAPPVAGPSVFLFPPKPKDTLMISRTPEVTCVVVGVSHEDPEVKFNWYVDGVEVHNAKTKPREEQYNSTYRVVSVLTVLHQDWLNGKEYKCKVSNKQLPSPIEKTISKAKGQPREPQVYTLPPSRDELTKNQVSLTCLVKGFYPSDIAVEWESNGQPENNYKTTPPVLDSDGSFFLYSKLTVDKSRWQQGNVFSCSVMHEALHNHYTQKSLSLSPGKSGDIQMTQSPSSLSASVGDRVTITCRASQDIRNYLNWYQQKPGKAPKLLIYYTSRLESGVPSRFSGSGSGTDYTLTISSLQPEDFATYYCQQGNTLPWTFGQGTKVEIKGGGGSGGGGSGGGGSEVQLVESGGGLVQPGGSLRLSCAASGYSFTGYTMNWVRQAPGKGLEWVALINPYKGVSTYNQKFKDRFTISVDKSKNTAYLQMNSLRAEDTAVYYCARSGYYGDSDWYFDVWGQGTLVTVSS light: not shown | > 10 nM | 63000 nM | 0.022 s⁻¹ | 489 M⁻¹ s⁻¹ | 
bispecific FLT3xCD3 IgGsc antibody V6-V8 (bispecific antibody, Fc-attenuated IgGsc format; also called CC-2 V8) heavy: QVQLQQPGAELVKPGASLKLSCKSSGYTFTSYWMHWVRQRPGHGLEWIGEIDPSDSYKDYNQKFKDKATLTVDRSSNTAYMHLSSLTSDDSAVYYCARAITTTPFDFWGQGTTLTVSSASTKGPSVFPLAPSSKSTSGGTAALGCLVKDYFPEPVTVSWNSGALTSGVHTFPAVLQSSGLYSLSSVVTVPSSSLGTQTYICNVNHKPSNTKVDKKVEPKSCDKTHTCPPCPAPPVAGPSVFLFPPKPKDTLMISRTPEVTCVVVGVSHEDPEVKFNWYVDGVEVHNAKTKPREEQYNSTYRVVSVLTVLHQDWLNGKEYKCKVSNKQLPSPIEKTISKAKGQPREPQVYTLPPSRDELTKNQVSLTCLVKGFYPSDIAVEWESNGQPENNYKTTPPVLDSDGSFFLYSKLTVDKSRWQQGNVFSCSVMHEALHNHYTQKSLSLSPGKSGDIQMTQSPSSLSASVGDRVTITCRASQDIRNYLNWYQQKPGKAPKLLIYYTSRLESGVPSRFSGSGSGTDYTLTISSLQPEDFATYYCQQGNTLPWTFGQGTKVEIKGGGGSGGGGSGGGGSEVQLVESGGGLVQPGGSLRLSCAASGYSFTGYTMNWVRQAPGKGLEWVALINPYKGVSTYNQKFKDRFTISVDDSKNTAYLQMNSLRAEDTAVYYCARSGYYGDSDWYFDVWGQGTLVTVSS light: DIVLTQSPATLSVTPGDSVSLSCRASQSISNNLHWYQQKSHESPRLLIKYASQSISGIPSRFSGSGSGTDFTLSINSVETEDFGVYFCQQSNTWPYTFGGGTKLEIKRTVAAPSVFIFPPSDEQLKSGTASVVCLLNNFYPREAKVQWKVDNALQSGNSQESVTEQDSKDSTYSLSSTLTLSKADYEKHKVYACEVTHQGLSSPVTKSFNRGEC |  |  |  |  | 92 nM
bispecific FLT3xCD3 IgGsc antibody V6-V7 (bispecific antibody, Fc-attenuated IgGsc format; also called CC-2 V7) heavy: QVQLQQPGAELVKPGASLKLSCKSSGYTFTSYWMHWVRQRPGHGLEWIGEIDPSDSYKDYNQKFKDKATLTVDRSSNTAYMHLSSLTSDDSAVYYCARAITTTPFDFWGQGTTLTVSSASTKGPSVFPLAPSSKSTSGGTAALGCLVKDYFPEPVTVSWNSGALTSGVHTFPAVLQSSGLYSLSSVVTVPSSSLGTQTYICNVNHKPSNTKVDKKVEPKSCDKTHTCPPCPAPPVAGPSVFLFPPKPKDTLMISRTPEVTCVVVGVSHEDPEVKFNWYVDGVEVHNAKTKPREEQYNSTYRVVSVLTVLHQDWLNGKEYKCKVSNKQLPSPIEKTISKAKGQPREPQVYTLPPSRDELTKNQVSLTCLVKGFYPSDIAVEWESNGQPENNYKTTPPVLDSDGSFFLYSKLTVDKSRWQQGNVFSCSVMHEALHNHYTQKSLSLSPGKSGDIQMTQSPSSLSASVGDRVTITCRASQDIRNYLNWYQQKPGKAPKLLIYYTSRLESGVPSRFSGSGSGTDYTLTISSLQPEDFATYYCQQGNTLPWTFGQGTKVEIKGGGGSGGGGSGGGGSEVQLVESGGGLVQPGGSLRLSCAASGYSFTGYTMNWVRQAPGKGLEWVALINPYKGVSTYADSFKGRFTISVDDSKNTAYLQMNSLRAEDTAVYYCARSGYYGDSDWYFDVWGQGTLVTVSS light: DIVLTQSPATLSVTPGDSVSLSCRASQSISNNLHWYQQKSHESPRLLIKYASQSISGIPSRFSGSGSGTDFTLSINSVETEDFGVYFCQQSNTWPYTFGGGTKLEIKRTVAAPSVFIFPPSDEQLKSGTASVVCLLNNFYPREAKVQWKVDNALQSGNSQESVTEQDSKDSTYSLSSTLTLSKADYEKHKVYACEVTHQGLSSPVTKSFNRGEC |  |  |  |  | 496 nM
